As a reminder, the Kd is the constant that tells how readily two partners part at equilibrium. A lower Kd goes with a tighter complex.

The experiment addresses human melanocortin 4 receptor (MC4R) (human) (UniProt P32245). As to the kind of experiment: radioligand binding.
Chain of UniProt P32245 (P32245 whole entry): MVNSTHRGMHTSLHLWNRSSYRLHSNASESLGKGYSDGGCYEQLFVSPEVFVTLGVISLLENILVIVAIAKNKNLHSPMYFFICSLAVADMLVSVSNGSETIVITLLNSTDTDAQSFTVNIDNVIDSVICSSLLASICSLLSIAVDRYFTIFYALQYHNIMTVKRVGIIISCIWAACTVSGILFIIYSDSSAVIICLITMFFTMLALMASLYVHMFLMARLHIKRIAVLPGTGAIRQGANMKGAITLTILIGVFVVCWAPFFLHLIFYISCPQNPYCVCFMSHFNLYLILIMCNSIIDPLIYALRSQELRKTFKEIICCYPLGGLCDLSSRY

Consider [^125I]-[Nle^4, DPhe^7]-α-MSH (peptide), for which the Kd was 0.1 nM.

Values taken from publication doi:10.1101/2024.06.07.597973.
